Legend:
MOLP-8 luciferase cells = assay: Disseminated MM mouse tumor xenograft (luminescence); assay type: in vivo, SCID mice; details: SEA-BCMA 3 mg/kg once IP combined with daratumumab 1 mg/kg weekly 5x, N=5
Method: Experiments were performed to test whether SEA-BCMA can combine effectively with daratumumab in a disseminated MM mouse tumor xenograft. MOLP-8 luciferase cells were injected IV into SCID animals and allowed to home to the bone marrow. Molp-8 cells express 2000 copies of BCMA and 323,000 copies of CD38 (daratumumab target). When sufficient luminescence was observed, animals were dosed once IP with SEA-BCMA, or SEA non targeted control at 3 mg/kg. Daratumumab was dosed weekly 5× at 1 mg/kg. Median luminescence plotted, N=5. The combination of SEA-BCMA and daratumumab yielded complete remissions in 4 of 5 animals.

[1] = target: T1, membrane BCMA on malignant plasma cells (Homo sapiens, UniProt Q02223); assay: Flow cytometric assessment of BCMA expression and engagement on MM cells in bone marrow; assay type: in vivo
T1 construct: from tissue; host or cells: multiple myeloma cells in patients' bone marrow aspirates
T1 sequence (Q02223 1-184): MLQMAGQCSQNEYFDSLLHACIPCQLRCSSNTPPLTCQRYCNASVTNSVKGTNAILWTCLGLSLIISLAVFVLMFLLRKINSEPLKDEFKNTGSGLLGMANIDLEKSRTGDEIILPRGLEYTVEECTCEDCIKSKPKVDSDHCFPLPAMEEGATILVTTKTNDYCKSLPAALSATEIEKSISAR
Method: A Flow Cytometric Assay was designed to identify multiple myeloma cells in patients bone marrow aspirate, and measure levels of BCMA (unbound and total) and APRIL on the MM cell surface.
Bone marrow aspirates were collected from enrolled patients at Baseline and on-treatment (C2D22, confirmation of CR, per standard of care), and tested by flow cytometry with one day of collection in most cases.
MM cells detection was performed using extracellular CD138, CD38, CD45, CD56 and CD28 staining and intracellular kappa and lambda light chains staining. […] Detection of APRIL, most probably bound to BCMA on the MM cell surface, is also performed.
Each sample was split into 3 aliquots: one aliquot stained using only the MM gating antigens but no anti-BCMA or anti-APRIL antibodies (gating control), one aliquot stained with MM Gating antigens and the two labeled anti-BCMA antibodies, and one incubated for 2 hours at 37 C with spiked BCMA (100 ug/mL) before staining with MM gating antigens+APRIL+labeled non-competing anti-BCMA 16.16 antibody. After staining, washing and fixation in 2% paraformaldyde, cells were analyzed on a BD FACScanto cytometer, with up to 2×10^6 leukocytes acquired. Data analysis was performed with FACS Diva (Q2) and FlowJo (Seattle Genetics).

[2] = tested on: MM1R myeloma target cells; assay: PBMC-mediated MM1R target cell killing, second experiment (PBMC pretreated 5 days, 0.5 μM pomalidomide); assay type: cell-based; details: combined with Pomalidomide, benchmarked against daratumumab, N=2
Method: Experiments were performed to test whether SEA-BCMA combines effectively with pomalidomide in vitro by combining PBMC effector cells with MM1R target cells treated with both pomalidomide and SEA-BCMA or antibody controls. The first experiment (FIG. 12A) benchmarks against MM standard of care elotuzumab and nonfucosylated parent BCMA antibody. The second experiment (FIG. 12B) benchmarks against MM standard of care daratumumab. MM1R target cells express 15,000 copies of BCMA, 12,000 copies of CS1 (elotuzumab target), and 36,000 copies of CD38 (daratumumab target).
In the second experiment (FIG. 12B), normal donor PBMCs of the FcγRIII V/F genotype were treated with or without 0.5 μM pomalidomide (APEx Bio, cat #A4211) for 5 days. The resulting PBMCs were then washed and mixed with CFSE (Invitrogen cat #V12883) labeled MM1R myeloma target cells at an effector-to-target cell ratio of 10:1. The mixture was then treated with a dose range of the following antibodies: SEA-BCMA, daratumumab, or non-binding hIgG1k antibody control (Sigma cat #15154) with or without 0.5 μM pomalidomide (APEx Bio, cat #A4211) and incubated overnight. Percentage live MM1R cells were then determined using the viability dye 7-AAD (BD Biosciences, cat #559925) by flow cytometry.

[3] = Pharmacokinetic analysis of SEA-BCMA serum concentration in patients
Molp-8 MM target cells = assay: ADCC 51Cr release assay with NK effector cells; assay type: cell-based; details: Molp-8, with vs without 0.2 μM Nirogacestat, NK cells 10:1, 4 h
Method: Whether the enhanced FcγRIII signaling translated to increased lysis of MM target cells by SEA-BCMA was determined. Molp-8 MM target cells were incubated with and without 0.2 μM Nirogacestat (purchased from SelleckChem) for 24 hrs. Cells were then Na2 [^51Cr] O4 labeled and added to titrations of SEA-BCMA, or isotype antibody control. Effector cells, NK cells enriched from normal donor PBMC, were added at an effector-to-target cell ratio of 10:1 (50,000:5000). Donor NK cells were of the high affinity FcγRIII V/V genotype. The combination of antibodies, NK cells and target cells were incubated for 4 h at 37° C. with and without Nirogacestat. The radioactivity released into the culture supernatant of lysed target cells was then measured and the percent specific cell lysis calculated. […] This is the primary of mechanism of action of SEA-BCMA and translates to specific enhanced anti-MM lysis. It is expected that this will translate to improvements in anti-MM activity in the clinic when SEA-BCMA is combined with GSIs.

In the case of “SEA-BCMA: non-fucosylated monoclonal anti-BCMA antibody having heavy chain SEQ ID NO: 13 and light chain SEQ ID NO: 15”, the complete remissions (MOLP-8 luciferase cells) is reported as 4 of 5, the “saturation of membrane BCMA” value ([1]; 1600 mg) is reported as “complete saturation was observed in at least one patient” and the “unbound membrane BCMA on malignant plasma cells” value ([1]; bone marrow of patients treated in dose escalation) is reported as “reduced levels of unbound membrane BCMA”. The “saturation of membrane BCMA” value ([1]; evaluable patients dosed at 800 mg and 1600 mg) was “Incomplete saturation of membrane BCMA”, the “MM1R target cell killing” value [2] was “greater MM1R target cell killing” and the “time at which PK reaches steady state” value ([3]; Q2W dosing) was “steady state at cycle 3”. The “accumulation at steady state” value ([3]; after Q2W dosing) was “approximately 70%” and the “ADCC (specific cell lysis)” value (Molp-8 MM target cells) was “Increased ADCC”.

— US20230118517A1, “METHODS OF TREATING MULTIPLE MYELOMA” (Seagen Inc., priority 2020, published 2023)
